Assay results published in patent WO2008073463A2 (dated 2008).
Each block holds one binder with its values, some of them ahead of it.

B3: soluble human IL-13 receptor alpha2 with a human IgG1 Fc tail (sIL13Rα2-Fc) (Fc fusion, UniProt Q14627 27-343, looked up, not shown: a dimerising Fc or GST)
chain: DTEIKVNPPQDFEIVDPGYLGYLYLQWQPPLSLDHFKECTVEYELKYRNIGSETWKTIITKNLHYKDGFDLNKGIEAKIHTLLPWQCTNGSEVQSSWAETTYWISPQGIPETKVQDMDCVYYNWQYLLCSWKPGIGVLLDTNYNLFYWYEGLDHALQCVDYIKADGQNIGCRFPYLEASDYKDFYICVNGSSENKPIRSSYFTFQLQNIVKPLPPVYLTFTRESSCEIKLKWSIPLGPIPARCFDYEIEIREDDTTLVTATVENETYTLKTTNETRQLCFVVRSKVNIYCSDDGIWSEWSDKQCWEGEDLSKKTLLR
B4: cynomolgus monkey IL-13 (NHP IL-13), recombinant (ligand)
chain: SPVPPSTALKELIEELVNITQNQKAPLCNGSMVWSINLTAGVYCAALESLINVSGCSAIEKTQRMLNGFCPHKVSAGQFSSLRVRDTKIEVAQFVKDLLVHLKKLFREGQFN
notes: also called non-human primate IL-13; cynomolgus IL-13

Assays:
[1] = target: B4; experiment: SPR (BIACORE), antibody captured on goat anti-human IgG Fc, NHP-IL-13 0.09-600 nM, 1:1 model, 22.5 C
[2] = target: native human IL-13 (crude preparation from activated human cord blood Th2 cells) (human, UniProt P35225 34-146); experiment: cell-based or functional assay
Sequence of native human IL-13 (crude preparation from activated human cord blood Th2 cells) (P35225 other isoform, or with tags, fused parts or gaps): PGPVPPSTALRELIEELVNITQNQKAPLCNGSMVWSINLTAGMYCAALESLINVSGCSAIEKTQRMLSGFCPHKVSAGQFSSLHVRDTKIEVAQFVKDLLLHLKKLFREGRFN

[3] = target: B4; experiment: SPR (BIACORE), Kd = kd / ka
[4] = target: B3; experiment: not described
[5] = target: B4; experiment: cell-based or functional assay

Binder: B3
IC50, STAT6 phosphorylation in HT-29 cells (0.3 ng/ml native human IL-13) [2]: 0.33 nM

Binder: B4
binding result [4]: binds

B5: mouse monoclonal antibody C65 (antibody, V domains shown)
VH: QVQLKESGPGLVAPSQSLSITCTVSGFSLTGYGVNWVRQPPGKGLEWLGIIWGDGSTDYNSALKSRLIINKDNSKSQVFLKMNSLQTDDTARYFCARDKTFYYDGFYRGRMDYWGQGTSVTVSS
VL: DVQMIQSPSSLSASLGDIVTMTCQASQGTSINLNWFQQKPGKAPKLLIFGASNLEDGVPSRFSGSRYGTNFTLTISSLEDEDMATYFCLQHSYLPWTFGGGTKLEIK
monocyte CD23 expression (3 ng/ml NHP IL-13) [5]: ~20 fold less active than MJ2-7 and sIL-13Rα2-Fc
STAT6 phosphorylation in HT-29 cells (0.3 ng/ml native human IL-13) [2]: ~20 fold less active

The remaining lines, values ahead:

koff [1]: 0.000889 s⁻¹
kon [1]: 2.05e+07 M⁻¹ s⁻¹
IC50, STAT6 phosphorylation in HT-29 cells (0.3 ng/ml native human IL-13) [2]: 0.52 nM
Kd [3]: 0.043 nM
B1: humanized MJ 2-7 V2.11 IgG1 with a mutated CH2 domain (antibody, V domains shown)
VH: EVQLVESGGGLVQPGGSLRLSCAASGFNIKDTYIHWVRQAPGKGLEWIGRIDPANDNIKYDPKFQGRFTISADNAKNSAYLQMNSLRAEDTAVYYCARSEENWYDFFDYWGQGTLVTVSS
VL: DIQMTQSPSSLSASVGDRVTITCRSSQSIVHSNGNTYLEWYQQKPGKAPKLLIYKVSNRFSGVPSRFSGSGSGTDFTLTISSLQPEDFATYYCFQGSHIPYTFGGGTKVEIKR
notes: 'QSΓVΉS' read as QSIVHS; also called huMJ 2-7 V2.11; hMJ2-7 V2-11

concentration for half-maximal inhibition of native human IL-13 bioactivity, against murine MJ2-7 [2]: ~110 fold greater than murine MJ2-7
B2: humanized MJ 2-7 V2 (hMJ 2-7 VH V2 with hMJ 2-7 VL V2) (antibody, human IgG1, V domains shown)
VH: EVQLVESGGGLVQPGGSLRLSCAASGFNIKDTYIHWVRQAPGKGLEWVARIDPANDNIKYDPKFQGRFTISRDNAKNSLYLQMNSLRAEDTAVYYCARSEENWYDFFDYWGQGTLVTVSS
VL: DIQMTQSPSSLSASVGDRVTITCRSSQSIVHSNGNTYLEWYQQKPGKAPKLLIYKVSNRFSGVPSRFSGSGSGTDFTLTISSLQPEDFATYYCFQGSHIPYTFGGGTKVEIKR

IC50, inhibition of CD23 expression (non-human primate IL-13 at 1 ng/ml) [5]: ~0.242 nM
IC50, STAT6 phosphorylation in HT-29 cells (0.3 ng/ml native human IL-13) [2]: 0.48 nM
IC50, inhibition of STAT6 phosphorylation (native human IL-13 at 1 ng/ml) [2]: ~0.293 nM
IC50, tenascin C production by BEAS-2B cells (3 ng/ml native human IL-13) [2]: ~0.1 nM
B6: mouse monoclonal antibody MJ 2-7 (antibody, mouse IgG1, V domains shown)
VH: EVQLQQSGAELVKPGASVKLSCTGSGFNIKDTYIHWVKQRPEQGLEWIGRIDPANDNIKYDPKFQGKATITADTSSNTAYLQLNSLTSEDTAVYYCARSEENWYDFFDYWGQGTTLTVSS
VL: DVLMTQTPLSLPVSLGDQASISCRSSQSIVHSNGNTYLEWYLQKPGQSPKLLIYKVSNRFSGVPDRFSGSGSGTDFTLKISRVEAEDLGVYYCFQGSHIPYTFGGGTKLEIK
